Data as given in US10905748B2, “Ovotransferrin treatment for the reproductive tract” (Vets Plus, Inc., priority 2018, dated 2021).

How the values were obtained:
[1] = tested on: infectious metritis in cows; experiment: Clinical trial of ovotransferrin bolus to prevent infectious metritis in postpartum cows; format: in vivo, cow; details: examined after 30 days
Protocol: (§1) A clinical trial was conducted to examine efficacy of the invention to prevent infectious metritis in cows. 10 gram of purified Ovotransferrin was mixed with 10 grams of binding agent to create a 20 gram total bolus with dimensions of 2 cm wide and 6 cm long. For N=5 cows from a herd known to have the standard metritis rate were selected that were 3 hours postpartum. Two boluses were inserted into the uterus and allowed to dissolve. The cows were monitor daily for any obvious signs of metritis. After 30 days, the cows were examined in detail for clinical signs of metritis. […] It would be expected that at least one of the cows of this group would have had metritis 10-12 days without the use of the invention.
as §1, with “A single bolus was” for “Two boluses were”
as §1, with “cows. 2.5” for “cows. 10”, “with 17.5” for “with 10”, “For N=7” for “For N=5”
A clinical trial was conducted to examine efficacy of the invention to prevent infectious metritis in cows. 2.5 gram of purified Ovotransferrin was mixed with 17.5 grams of binding agent to create a 20 gram total bolus with dimensions of 2 cm wide and 6 cm long. For N=7 cows from a herd known to have the standard metritis rate were selected that were 3 hours postpartum. A single bolus was inserted into the uterus and allowed to dissolve. The cows were monitor daily for any obvious signs of metritis. After 30 days, the cows were examined in detail for clinical signs of metritis. […]

[2] = tested on: Cows with clinical endometritis; experiment: Intrauterine infusion of ovotransferrin solution in cows with clinical endometritis; format: in vivo, cow
Text: (§2) Cows with clinical endometritis (n=4) were identified based on the clinical signs, rectal temperature, score of mucus characteristics, total polymorph numbers, pH of uterine discharge, uterine swab analysis, and bacterial culture, along with healthy cows (control, n=4). Two hundred ml of a 5% ovotransferrin solution of the invention were infused intrauterine with a special pipette attached to a pump in the treatment group. Seven days later, all the above parameters were reexamined. Total number of polymorph in uterine discharge was counted using a hemocytometer, stained with Giemsa and Gram stain.
as §2, with “(n=3)” for “(n=4)”, “n=3.” for “n=4).”, “reexamined.” for “reexamined. Total number of polymorph in uterine discharge was counted using a hemocytometer, stained with Giemsa and Gram stain.”
as §2, with “reexamined. Mucus score was 6 times higher” for “reexamined. Total number of polymorph”, “in metritis affected cows than control values. […] This indicates the invention” for “in uterine discharge”, “was efficacious for treatment metritis in cows.” for “was counted using a hemocytometer, stained with Giemsa and Gram stain.”
as §2, with “reexamined.” for “reexamined. Total number of polymorph in uterine discharge was counted using a hemocytometer, stained with Giemsa and Gram stain.”

[3] = tested on: metritis causing bacteria; experiment: Agar well zone of inhibition on bacteria cultured from metritis discharge; format: cell-based, bacteria from the discharge of a cow diagnosed with metritis; details: 24 hour diffusion at 37° C.
Protocol: A cow that was diagnosed with metritis, as evidenced by elevated temperature, elevated total leukocyte count, raised tails, and foul smelling discharge, had the discharge cultured onto blood agar plates. Bacteria colonies with different morphology from the metritis discharge that grew were selected and placed into 20 ml liquid nutrient broth in culture tubes at a defined amount and incubated overnight at 37° C. The bacteria in the liquid nutrient broth was then used to create agar plates by mixing 1 ml of nutrient broth containing bacteria with 15 ml of warm agar and poured into petri dishes and incubated for 24-48 hrs. at 37° C. Then, holes were punched into the agar and a dose response of previously purified ovotransferrin at 0%, 10% and 25% w/v in sterile water was placed in the holes. The plates were allowed to diffuse for 24 hour at 37° C. to check for zone of inhibition. Zones of inhibition were visualized by clearings in the agar where no bacteria grew. […] This is consistent with ovotransferrin in killing the bacteria that cause metritis. It was concluded that ovotransferrin of the invention is able to inhibit growth of the metritis causing bacteria in a dose dependent manner.

B1: ovotransferrin (protein, UniProt P02789 20-705, looked up)
Ovotransferrin: APPKSVIRWCTISSPEEKKCNNLRDLTQQERISLTCVQKATYLDCIKAIANNEADAISLDGGQAFEAGLAPYKLKPIAAEVYEHTEGSTTSYYAVAVVKKGTEFTVNDLQGKTSCHTGLGRSAGWNIPIGTLLHRGAIEWEGIESGSVEQAVAKFFSASCVPGATIEQKLCRQCKGDPKTKCARNAPYSGYSGAFHCLKDGKGDVAFVKHTTVNENAPDQKDEYELLCLDGSRQPVDNYKTCNWARVAAHAVVARDDNKVEDIWSFLSKAQSDFGVDTKSDFHLFGPPGKKDPVLKDLLFKDSAIMLKRVPSLMDSQLYLGFEYYSAIQSMRKDQLTPSPRENRIQWCAVGKDEKSKCDRWSVVSNGDVECTVVDETKDCIIKIMKGEADAVALDGGLVYTAGVCGLVPVMAERYDDESQCSKTDERPASYFAVAVARKDSNVNWNNLKGKKSCHTAVGRTAGWVIPMGLIHNRTGTCNFDEYFSEGCAPGSPPNSRLCQLCQGSGGIPPEKCVASSHEKYFGYTGALRCLVEKGDVAFIQHSTVEENTGGKNKADWAKNLQMDDFELLCTDGRRANVMDYRECNLAEVPTHAVVVRPEKANKIRDLLERQEKRFGVNGSEKSKFMMFESQNKDLLFKDLTKCLFKVREGTTYKEFLGDKFYTVISSLKTCNPSDILQMCSFLEGK
notes: 12 to 13% of total egg white protein
clinical signs of metritis ([1]; single bolus of 2.5 g ovotransferrin in uterus 3 hours postpartum, N=7): None of the cows had any signs of metritis | clinical signs of metritis ([1]; single bolus of 10 g ovotransferrin in uterus 3 hours postpartum, N=5): None of the cows had any signs of metritis | clinical signs of metritis ([1]; two boluses of 2.5 g ovotransferrin (5 grams) in uterus 3 hours postpartum, N=7): None of the cows had any signs of metritis | clinical signs of metritis ([1]; two boluses of 10 g ovotransferrin (20 grams) in uterus 3 hours postpartum, N=5): None of the cows had any signs of metritis | Mean pH of uterine discharge ([2]; one week after intrauterine infusion of 200 ml 5% solution, 8.8 before treatment, healthy control 6.8, n=3, p<0.05, FIG. 2): 7.0 | Rectal temperature ([2]; one week after intrauterine infusion of 200 ml 5% solution, >40° C. before treatment, n=4, FIG. 1): 38.5 °C | Mucus score ([2]; seven days after intrauterine infusion of 200 ml 5% solution, 6 times control before treatment, n=4, FIG. 3): statistically significant decrease | Total number of polymorph in uterine discharge ([2]; seven days after intrauterine infusion of 200 ml 5% solution, more than 70 times control before treatment, n=4, FIG. 4): statistically significantly (p<0.01) reduced (2 and 4 times higher, respectively, compared with control) | zone of inhibition ([3]; 10% w/v ovotransferrin in sterile water in agar wells): a zone of inhibition was seen | zone of inhibition ([3]; 25% w/v ovotransferrin in sterile water in agar wells): a larger zone
